Data on one molecule can be found in paper PMC10058294, “Interaction of SARS-CoV-2 Nucleocapsid Protein and Human RNA Helicases DDX1 and DDX3X Modulates Their Activities on Double-Stranded RNA” (International Journal of Molecular Sciences, 2023).

This test addresses T1, recombinant full-length SARS-CoV-2 nucleocapsid protein (Np) (SARS-CoV-2, UniProt P0DTC9 1-419).
T1 construct: also called N protein; recombinant Np
Description: pull-down. The conditions noted are these: both partners purified.

B1: HALO-tagged recombinant full-length human DDX3X (enzyme, UniProt O00571 1-662, looked up)
chain: MSHVAVENALGLDQQFAGLDLNSSDNQSGGSTASKGRYIPPHLRNREATKGFYDKDSSGWSSSKDKDAYSSFGSRSDSRGKSSFFSDRGSGSRGRFDDRGRSDYDGIGSRGDRSGFGKFERGGNSRWCDKSDEDDWSKPLPPSERLEQELFSGGNTGINFEKYDDIPVEATGNNCPPHIESFSDVEMGEIIMGNIELTRYTRPTPVQKHAIPIIKEKRDLMACAQTGSGKTAAFLLPILSQIYSDGPGEALRAMKENGRYGRRKQYPISLVLAPTRELAVQIYEEARKFSYRSRVRPCVVYGGADIGQQIRDLERGCHLLVATPGRLVDMMERGKIGLDFCKYLVLDEADRMLDMGFEPQIRRIVEQDTMPPKGVRHTMMFSATFPKEIQMLARDFLDEYIFLAVGRVGSTSENITQKVVWVEESDKRSFLLDLLNATGKDSLTLVFVETKKGADSLEDFLYHEGYACTSIHGDRSQRDREEALHQFRSGKSPILVATAVAARGLDISNVKHVINFDLPSDIEEYVHRIGRTGRVGNLGLATSFFNERNINITKDLLDLLVEAKQEVPSWLENMAYEHHYKGSSRGRSKSSRFSGGFGARDYRQSSGASSSSFSSSRASSSRSGGGGHGSSRGFGGGGYGGFYNSDGYGGNYNSQGVDWWGN
notes: TEV site between tag and DDX3X; The helicase and EMSA assays used another construct (pET30a(+)-DDX3X, purified from ShuffleT7 E. coli); also called HALO-DDX3X; Halo-tagged DDX3X; not shown: HaloTag, N-terminal, kept
Turning to B1, the binding result is recorded as “binds”.
